# B1: ADI-34143 (antibody, V domains shown)
# VH: EVQLLESGGGLVQPGGSLRLSCAASGFTFSSYAMSWVRQAPGKGLEWVSTISGSGGSTYYADSVKGRFTISRDNSKNTLYLQMNSLRAEDTAVYYCARLGGRRGSGSSYYYYYGMDVWGQGTTVTVSS
# VL: not shown
# notes: anti-ID IgG
# Experiments:
# [1] = target: T1, ADI-22523 IgG; assay: BLI; tip anti-ID IgG, solution ADI-22523 IgG
# T1 construct: anti-CD3 IgG
# How it was run: (§1)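 Anti-ID IgG was captured on AHC biosensors, equilibrated in assay buffer for 30 min, then baselined for 60 s. KD = koff/kon came from a 1:1 binding fit.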
# [2] = target: T2, ADI-74967; assay: SPR Carterra avidity, yeast anti-ID
# T2 construct: pH-dependent anti-CD3 antibody made in CHO cells
# How it was run: (§2)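 Measured at 25° C in HBSTE running buffer on a Carterra LSA; anti-CD3 antibodies (100 nM) were captured for 5 min on an amine-coupled goat anti-human Fc HC30M chip. Anti-idiotype dissociation was followed for 300s, and double-referenced sensorgrams were fitted to a 1:1 binding model.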
# [3] = target: T3, ADI-26921 IgG; assay: SPR Carterra avidity, yeast anti-ID
# T3 construct: anti-CD3 IgG
# How it was run: as §2
# [4] = target: T4, ADI-76359; assay: SPR Carterra avidity, yeast anti-ID
# T4 construct: anti-CD3 antibody made in CHO cells, captured by anti-human Fc
# How it was run: as §2
# [5] = target: T5, ADI-26924; assay: SPR Carterra avidity, yeast anti-ID
# T5 construct: anti-CD3 antibody made in CHO cells, captured by anti-human Fc
# How it was run: as §2
# [6] = target: T6, ADI-26916 IgG; assay: SPR Carterra avidity, yeast anti-ID
# T6 construct: anti-CD3 IgG
# How it was run: as §2
# [7] = target: T7, ADI-26920 IgG; assay: SPR Carterra avidity, yeast anti-ID
# T7 construct: anti-CD3 IgG
# How it was run: as §2
# [8] = target: T8, ADI-67450; assay: SPR Carterra avidity, yeast anti-ID
# T8 construct: anti-CD3 antibody made in CHO cells, captured by anti-human Fc
# How it was run: as §2
# [9] = target: T9, ADI-26943; assay: SPR Carterra avidity, yeast anti-ID
# T9 construct: anti-CD3 antibody made in CHO cells, captured by anti-human Fc
# How it was run: as §2
# [10] = target: T10, ADI-76361; assay: SPR Carterra avidity, yeast anti-ID
# T10 construct: anti-CD3 antibody made in CHO cells, captured by anti-human Fc
# How it was run: as §2
# [11] = target: T11, ADI-67447; assay: SPR Carterra avidity, yeast anti-ID
# T11 construct: anti-CD3 antibody made in CHO cells, captured by anti-human Fc
# How it was run: as §2
# [12] = target: T12, ADI-76362; assay: SPR Carterra avidity, yeast anti-ID
# T12 construct: anti-CD3 antibody made in CHO cells, captured by anti-human Fc
# How it was run: as §2
# [13] = target: T13, ADI-76358; assay: SPR Carterra avidity, yeast anti-ID
# T13 construct: anti-CD3 antibody made in CHO cells, captured by anti-human Fc
# How it was run: as §2
# [14] = target: T14, ADI-76360; assay: SPR Carterra avidity, yeast anti-ID
# T14 construct: anti-CD3 antibody made in CHO cells, captured by anti-human Fc
# How it was run: as §2
# [15] = target: T15, ADI-26919; assay: SPR Carterra avidity, yeast anti-ID
# T15 construct: anti-CD3 antibody made in CHO cells, captured by anti-human Fc
# How it was run: as §2
# [16] = target: T16, ADI-26912; assay: SPR Carterra avidity, yeast anti-ID
# T16 construct: anti-CD3 antibody made in CHO cells, captured by anti-human Fc
# How it was run: as §2
# [17] = target: T17, ADI-74965; assay: SPR Carterra avidity, yeast anti-ID
# T17 construct: pH-dependent anti-CD3 antibody made in CHO cells
# How it was run: as §2
# [18] = target: T18, ADI-48592; assay: SPR Carterra avidity, yeast anti-ID
# T18 construct: pH-dependent anti-CD3 antibody made in CHO cells
# How it was run: as §2
# [19] = target: T19, ADI-74968; assay: SPR Carterra avidity, yeast anti-ID
# T19 construct: pH-dependent anti-CD3 antibody made in CHO cells
# How it was run: as §2
# [20] = target: T20, ADI-26913 IgG; assay: SPR Carterra avidity, yeast anti-ID
# T20 construct: anti-CD3 IgG
# How it was run: as §2
# [21] = target: T21, ADI-48576; assay: SPR Carterra avidity, yeast anti-ID
# T21 construct: pH-dependent anti-CD3 antibody made in CHO cells
# How it was run: as §2
# [22] = target: T22, ADI-74966; assay: SPR Carterra avidity, yeast anti-ID
# T22 construct: pH-dependent anti-CD3 antibody made in CHO cells
# How it was run: as §2
# [23] = target: T23, ADI-22523 Fab; assay: BLI; tip anti-ID IgG, solution ADI-22523 Fab
# T23 construct: anti-CD3 Fab by papain digestion of the IgG
# How it was run: as §1
# [24] = target: T24, ADI-76357; assay: SPR Carterra avidity, yeast anti-ID, *koff limit
# T24 construct: anti-CD3 antibody made in CHO cells, captured by anti-human Fc
# How it was run: as §2
# [25] = target: T25, ADI-26906 IgG; assay: SPR Carterra avidity, yeast anti-ID, *koff limit
# T25 construct: anti-CD3 IgG
# How it was run: as §2
# [26] = target: T26, ADI-67445; assay: SPR Carterra, yeast anti-ID
# T26 construct: anti-CD3 antibody made in CHO cells, captured by anti-human Fc
# How it was run: as §2
# [27] = target: T27, CTL-62223; assay: SPR Carterra, yeast anti-ID
# T27 construct: also called mosunetuzumab
# How it was run: as §2
# [28] = target: T28, ADI-70330; assay: SPR Carterra, yeast anti-ID
# T28 construct: anti-CD3 antibody made in CHO cells, captured by anti-human Fc
# How it was run: as §2
# [29] = target: T29, ADI-70327; assay: SPR Carterra, yeast anti-ID
# T29 construct: anti-CD3 antibody made in CHO cells, captured by anti-human Fc
# How it was run: as §2
# [30] = target: T30, CTL-62240; assay: SPR Carterra, yeast anti-ID
# T30 construct: also called ONO-4685
# How it was run: as §2
# [31] = target: T31, ADI-48587; assay: SPR Carterra, yeast anti-ID
# T31 construct: pH-dependent anti-CD3 antibody made in CHO cells
# How it was run: as §2
# [32] = target: T32, ADI-26909; assay: SPR Carterra, yeast anti-ID
# T32 construct: anti-CD3 antibody made in CHO cells, captured by anti-human Fc
# How it was run: as §2
# [33] = target: T33, CTL-62227; assay: SPR Carterra, yeast anti-ID
# T33 construct: also called odronextamab
# How it was run: as §2
# [34] = target: T34, ADI-26915; assay: SPR Carterra, yeast anti-ID
# T34 construct: anti-CD3 antibody made in CHO cells, captured by anti-human Fc
# How it was run: as §2
# [35] = target: T35, ADI-48650; assay: SPR Carterra, yeast anti-ID
# T35 construct: pH-dependent anti-CD3 antibody made in CHO cells
# How it was run: as §2
# [36] = target: T36, ADI-50024; assay: SPR Carterra, yeast anti-ID
# T36 construct: anti-CD3 antibody made in CHO cells, captured by anti-human Fc
# How it was run: as §2
# [37] = target: T37, ADI-70326; assay: SPR Carterra, yeast anti-ID
# T37 construct: anti-CD3 antibody made in CHO cells, captured by anti-human Fc
# How it was run: as §2
# [38] = target: T38, CTL-62228; assay: SPR Carterra, yeast anti-ID
# T38 construct: also called glofitamab
# How it was run: as §2
# T14 sequence (VH, as listed by the source, chain 1 of 2): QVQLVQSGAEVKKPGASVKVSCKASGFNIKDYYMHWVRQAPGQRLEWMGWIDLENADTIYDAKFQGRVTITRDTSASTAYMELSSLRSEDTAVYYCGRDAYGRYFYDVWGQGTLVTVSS
# T14 sequence (VL, as listed by the source, chain 2 of 2): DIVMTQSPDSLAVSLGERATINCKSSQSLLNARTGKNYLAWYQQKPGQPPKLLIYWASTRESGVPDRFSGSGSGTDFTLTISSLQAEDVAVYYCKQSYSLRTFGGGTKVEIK
# T26 sequence (VH, as listed by the source limits assumed, chain 1 of 2): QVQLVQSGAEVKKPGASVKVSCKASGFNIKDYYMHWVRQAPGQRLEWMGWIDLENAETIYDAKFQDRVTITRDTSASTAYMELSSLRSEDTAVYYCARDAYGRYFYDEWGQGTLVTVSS
# T26 sequence (VL, as listed by the source limits assumed, chain 2 of 2): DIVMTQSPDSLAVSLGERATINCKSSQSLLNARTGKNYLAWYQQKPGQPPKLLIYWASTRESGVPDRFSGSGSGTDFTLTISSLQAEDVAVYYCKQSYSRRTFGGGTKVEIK
# T6 sequence (VH, as listed by the source, chain 1 of 2): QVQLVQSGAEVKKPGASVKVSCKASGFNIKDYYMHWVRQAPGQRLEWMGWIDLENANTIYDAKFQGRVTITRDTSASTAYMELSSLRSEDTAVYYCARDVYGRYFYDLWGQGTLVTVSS
# T12 sequence (VH, as listed by the source, chain 1 of 2): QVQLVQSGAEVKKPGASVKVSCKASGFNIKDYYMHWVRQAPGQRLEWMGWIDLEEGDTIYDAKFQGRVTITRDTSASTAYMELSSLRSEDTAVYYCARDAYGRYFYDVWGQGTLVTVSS
# T22 sequence (VH, as listed by the source, chain 1 of 2): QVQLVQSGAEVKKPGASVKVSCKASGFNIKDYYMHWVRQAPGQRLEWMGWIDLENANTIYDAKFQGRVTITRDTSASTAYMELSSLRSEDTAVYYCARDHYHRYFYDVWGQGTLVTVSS
# T22 sequence (VL, as listed by the source, chain 2 of 2): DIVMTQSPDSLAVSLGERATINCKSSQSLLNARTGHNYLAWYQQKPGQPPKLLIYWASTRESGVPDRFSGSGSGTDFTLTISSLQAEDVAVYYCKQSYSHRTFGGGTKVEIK
# T31 sequence (VL, as listed by the source, chain 2 of 2): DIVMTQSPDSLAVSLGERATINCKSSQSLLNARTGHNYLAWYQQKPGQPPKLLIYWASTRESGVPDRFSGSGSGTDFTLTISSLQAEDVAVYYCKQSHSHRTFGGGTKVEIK
# T2 sequence (VL, as listed by the source, chain 2 of 2): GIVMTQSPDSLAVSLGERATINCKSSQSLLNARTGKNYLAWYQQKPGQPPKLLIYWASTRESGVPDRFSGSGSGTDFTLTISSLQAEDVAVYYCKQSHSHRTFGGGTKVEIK
# T18 sequence (VH, as listed by the source, chain 1 of 2): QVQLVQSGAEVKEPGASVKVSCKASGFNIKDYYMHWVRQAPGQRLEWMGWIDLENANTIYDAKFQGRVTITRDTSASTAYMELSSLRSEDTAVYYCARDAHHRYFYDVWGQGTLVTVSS
# T18 sequence (VL, as listed by the source, chain 2 of 2): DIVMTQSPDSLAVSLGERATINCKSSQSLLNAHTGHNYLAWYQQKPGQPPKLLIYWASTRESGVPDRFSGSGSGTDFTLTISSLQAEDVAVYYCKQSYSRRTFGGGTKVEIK
# T30 sequence (VH, as listed by the source, chain 1 of 2): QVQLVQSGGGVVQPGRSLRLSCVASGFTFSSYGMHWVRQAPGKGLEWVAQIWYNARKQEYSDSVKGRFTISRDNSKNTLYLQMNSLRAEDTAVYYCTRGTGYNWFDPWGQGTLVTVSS
# T30 sequence (VL, as listed by the source, chain 2 of 2): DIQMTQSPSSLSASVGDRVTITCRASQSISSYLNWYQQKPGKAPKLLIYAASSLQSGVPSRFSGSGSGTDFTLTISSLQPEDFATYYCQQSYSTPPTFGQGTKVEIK
# T10 sequence (VH, as listed by the source, chain 1 of 2): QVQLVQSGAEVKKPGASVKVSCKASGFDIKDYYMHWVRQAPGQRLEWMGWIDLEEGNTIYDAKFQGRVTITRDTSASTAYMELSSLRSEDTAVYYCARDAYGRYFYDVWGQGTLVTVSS
# T9 sequence (VH, as listed by the source, chain 1 of 2): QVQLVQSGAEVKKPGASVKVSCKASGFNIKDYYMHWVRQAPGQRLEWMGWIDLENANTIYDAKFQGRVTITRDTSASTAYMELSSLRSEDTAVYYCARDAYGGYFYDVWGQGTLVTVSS
# T9 sequence (VL, as listed by the source, chain 2 of 2): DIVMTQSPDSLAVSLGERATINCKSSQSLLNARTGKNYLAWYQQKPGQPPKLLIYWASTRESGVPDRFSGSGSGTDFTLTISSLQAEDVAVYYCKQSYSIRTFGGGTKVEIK
# T4 sequence (VH, as listed by the source, chain 1 of 2): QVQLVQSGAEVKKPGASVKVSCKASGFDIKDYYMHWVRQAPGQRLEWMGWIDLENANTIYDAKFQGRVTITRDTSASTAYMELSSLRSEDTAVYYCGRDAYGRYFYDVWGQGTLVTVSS
# T20 sequence (VH, as listed by the source limits assumed, chain 1 of 2): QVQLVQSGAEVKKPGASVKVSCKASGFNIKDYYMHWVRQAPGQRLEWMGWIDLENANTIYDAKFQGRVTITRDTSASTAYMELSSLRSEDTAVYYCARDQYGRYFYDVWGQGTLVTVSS
# T5 sequence (VH, as listed by the source, chain 1 of 2): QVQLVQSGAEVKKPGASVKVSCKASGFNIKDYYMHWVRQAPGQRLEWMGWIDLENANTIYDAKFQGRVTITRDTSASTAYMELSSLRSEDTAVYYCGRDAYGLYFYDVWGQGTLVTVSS
# T15 sequence (VH, as listed by the source limits assumed, chain 1 of 2): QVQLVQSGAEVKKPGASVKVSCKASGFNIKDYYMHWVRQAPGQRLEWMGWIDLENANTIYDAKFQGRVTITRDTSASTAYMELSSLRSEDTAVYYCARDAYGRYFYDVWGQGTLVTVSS
# T11 sequence (VH, as listed by the source limits assumed, chain 1 of 2): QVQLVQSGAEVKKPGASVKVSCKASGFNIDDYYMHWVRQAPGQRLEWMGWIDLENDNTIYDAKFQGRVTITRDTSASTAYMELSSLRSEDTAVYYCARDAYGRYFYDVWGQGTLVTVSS
# T13 sequence (VH, as listed by the source, chain 1 of 2): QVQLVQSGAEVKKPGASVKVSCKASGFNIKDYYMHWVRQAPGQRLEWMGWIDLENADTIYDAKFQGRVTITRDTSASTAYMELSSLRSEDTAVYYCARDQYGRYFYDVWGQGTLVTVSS
binder,measurement,setting,value
B1,Kd,[1],2.98 nM
same,binding result,[2],binds
same,binding result,[3],binds
same,Kd,[4],20 nM
same,Kd,[5],20 nM
same,Kd,[6],43 nM
same,Kd,[7],35 nM
same,binding result,[8],binds
same,Kd,[9],11 nM
same,binding result,[10],binds
same,Kd,[11],33 nM
same,binding result,[12],binds
same,binding result,[13],binds
same,binding result,[14],binds
same,Kd,[15],24 nM
same,binding result,[16],binds
same,binding result,[17],binds
same,binding result,[18],binds
same,Kd,[19],130 nM
same,Kd,[20],23 nM
same,binding result,[21],binds
same,Kd,[22],36 nM
same,Kd,[23],18.2 nM
same,Kd,[24],6.6 nM
same,Kd,[25],13 nM
same,binding result,[26],no binding (tested: up to 200 nM)
same,binding result,[27],no binding (tested: up to 200 nM)
same,binding result,[28],no binding (tested: up to 200 nM)
same,binding result,[29],no binding (tested: up to 200 nM)
same,binding result,[30],no binding (tested: up to 200 nM)
same,binding result,[31],no binding (tested: up to 200 nM)
same,binding result,[32],no binding (tested: up to 200 nM)
same,binding result,[33],no binding (tested: up to 200 nM)
same,binding result,[34],no binding (tested: up to 200 nM)
same,binding result,[35],no binding (tested: up to 200 nM)
same,binding result,[36],no binding (tested: up to 200 nM)
same,binding result,[37],no binding (tested: up to 200 nM)
same,binding result,[38],no binding (tested: up to 200 nM)

# — patent publication US20250019439A1 (Adimab, published 2025)
